T1: scTop1 catalytically inactive (Y272F as printed) (Saccharomyces cerevisiae, UniProt P04786 1-769, Y727F)
T1 sequence: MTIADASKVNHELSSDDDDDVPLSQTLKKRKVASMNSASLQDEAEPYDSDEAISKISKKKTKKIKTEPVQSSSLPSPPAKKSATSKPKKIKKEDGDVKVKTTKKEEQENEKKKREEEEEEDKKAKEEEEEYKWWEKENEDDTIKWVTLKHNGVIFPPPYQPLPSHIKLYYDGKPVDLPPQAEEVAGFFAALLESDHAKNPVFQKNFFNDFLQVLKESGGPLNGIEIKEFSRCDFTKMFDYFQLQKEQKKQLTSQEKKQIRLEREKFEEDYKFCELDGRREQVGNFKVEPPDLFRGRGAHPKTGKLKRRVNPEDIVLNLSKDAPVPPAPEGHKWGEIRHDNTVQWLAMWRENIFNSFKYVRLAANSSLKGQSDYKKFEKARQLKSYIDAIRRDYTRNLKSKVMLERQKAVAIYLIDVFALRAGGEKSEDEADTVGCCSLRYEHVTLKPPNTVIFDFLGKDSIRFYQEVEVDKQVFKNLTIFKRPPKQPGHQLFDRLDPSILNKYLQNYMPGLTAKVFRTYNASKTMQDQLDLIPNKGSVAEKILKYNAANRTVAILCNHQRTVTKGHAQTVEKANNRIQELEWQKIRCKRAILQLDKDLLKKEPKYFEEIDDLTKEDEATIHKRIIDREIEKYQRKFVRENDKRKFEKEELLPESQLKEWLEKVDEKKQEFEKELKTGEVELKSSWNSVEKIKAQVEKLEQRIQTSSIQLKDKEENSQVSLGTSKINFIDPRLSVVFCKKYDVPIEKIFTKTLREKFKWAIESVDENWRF

T2: hTop1mt-Y559F (catalytically inactive) (Homo sapiens, UniProt Q969P6 51-601, Y559F)
T2 sequence: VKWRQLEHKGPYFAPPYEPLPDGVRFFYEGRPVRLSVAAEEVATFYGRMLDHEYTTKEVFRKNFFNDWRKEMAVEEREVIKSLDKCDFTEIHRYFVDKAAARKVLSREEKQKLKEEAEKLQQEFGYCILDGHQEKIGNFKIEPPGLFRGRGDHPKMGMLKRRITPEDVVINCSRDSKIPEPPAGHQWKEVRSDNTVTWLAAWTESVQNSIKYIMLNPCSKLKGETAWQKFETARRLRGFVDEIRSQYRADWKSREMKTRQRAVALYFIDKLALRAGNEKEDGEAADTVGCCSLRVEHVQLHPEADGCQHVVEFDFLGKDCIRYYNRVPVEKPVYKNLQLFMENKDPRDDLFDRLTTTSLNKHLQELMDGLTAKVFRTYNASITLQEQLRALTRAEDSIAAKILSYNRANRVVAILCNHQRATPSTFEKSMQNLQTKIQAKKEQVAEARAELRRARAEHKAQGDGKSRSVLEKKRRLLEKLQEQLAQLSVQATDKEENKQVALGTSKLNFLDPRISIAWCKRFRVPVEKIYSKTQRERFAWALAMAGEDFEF

B1: Substrate A (dsDNA)
DNA 1: AGCGTTGAAGATATGTGGCAAAACCTTTGT
DNA 2: ACAAAGGTTTTGCCACATATCTTCAACGCT
B2: Substrate C (dsDNA)
DNA 1: ACTCGTCACGAGAGAGATGCCACGGTATTTCAAA
DNA 2: TTTGAAATACCGTGGCATCTCTCTCGTGACGAGT
B3: Substrate D (dsDNA)
DNA 1: B2 DNA 1
DNA 2: B2 DNA 2
modifications: single ribonucleotide rG at position 16 of top strand (2 nt upstream of cleavage site), rest DNA

Columns and labels:
Test in all cases: fluorescence anisotropy; 20 mM Tris pH 8, 66 mM NaCl, 1 mM DTT, 10% glycerol, 25 C, 10 min; 0.5 nM dsDNA, 0-60 nM Top1
Conditions in all cases: protein: recombinant; tags: GST removed by 3C protease; label: 5'-FAM top strand; blunt
[1] = target: T1, scTop1 catalytically inactive (Y272F as …)
[2] = target: hTop1-Y723F (catalytically inactive) (Homo sapiens, UniProt P11387 1-765, Y723F)
Chain of hTop1-Y723F (catalytically inactive) (P11387 whole entry Y723F): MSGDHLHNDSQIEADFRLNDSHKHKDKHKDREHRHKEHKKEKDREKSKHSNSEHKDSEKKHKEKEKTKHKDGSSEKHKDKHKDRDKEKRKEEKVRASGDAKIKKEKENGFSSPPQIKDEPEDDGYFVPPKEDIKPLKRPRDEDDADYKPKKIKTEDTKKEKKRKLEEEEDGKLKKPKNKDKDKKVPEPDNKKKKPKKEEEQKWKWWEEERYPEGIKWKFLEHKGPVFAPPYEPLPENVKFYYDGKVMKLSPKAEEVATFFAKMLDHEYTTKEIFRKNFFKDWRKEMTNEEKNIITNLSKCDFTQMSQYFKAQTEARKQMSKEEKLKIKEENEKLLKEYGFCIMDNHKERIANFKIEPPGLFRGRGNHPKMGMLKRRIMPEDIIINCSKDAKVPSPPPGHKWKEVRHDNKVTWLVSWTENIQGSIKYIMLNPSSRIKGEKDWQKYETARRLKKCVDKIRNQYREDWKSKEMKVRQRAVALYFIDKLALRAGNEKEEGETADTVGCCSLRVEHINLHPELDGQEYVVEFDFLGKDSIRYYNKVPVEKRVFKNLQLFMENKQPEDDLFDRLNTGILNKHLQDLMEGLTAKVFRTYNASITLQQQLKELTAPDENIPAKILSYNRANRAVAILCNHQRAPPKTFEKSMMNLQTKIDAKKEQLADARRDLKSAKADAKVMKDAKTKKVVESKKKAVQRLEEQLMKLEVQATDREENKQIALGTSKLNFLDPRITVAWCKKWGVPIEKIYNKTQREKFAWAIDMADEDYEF

[3] = target: T2, hTop1mt-Y559F (catalytically inactive)

Binder	Kd [1] [nM]	Kd [2] [nM]	Kd [3] [nM]
B1	3.55	1.16	3.5
B2	9.47	1.26	4.57
B3	8.75	1.36	2.29
